This is an account of results in paper PMC10904395, “The Deinococcus protease PprI senses DNA damage by directly interacting with single-stranded DNA”.

The data set deals with T1, DG-PprI patch 1 mutant (Deinococcus geothermalis, UniProt Q1J1D6 1-289, R85A;R207A;R267A).
T1 sequence: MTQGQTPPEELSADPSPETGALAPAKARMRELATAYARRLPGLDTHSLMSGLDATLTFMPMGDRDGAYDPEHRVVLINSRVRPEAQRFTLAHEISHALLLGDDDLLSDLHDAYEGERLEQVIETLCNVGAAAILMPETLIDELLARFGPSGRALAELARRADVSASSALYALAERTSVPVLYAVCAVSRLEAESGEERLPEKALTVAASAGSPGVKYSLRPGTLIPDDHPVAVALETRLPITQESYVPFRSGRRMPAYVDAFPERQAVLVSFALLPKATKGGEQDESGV
As to the kind of experiment: EMSA; EMSA: 150 mM NaCl, 20 mM Tris-HCl pH 8.0, 0.1 mg/ml BSA, 0.1 uM FAM-labeled nucleic acid, 0/1/2 uM protein, room temperature 30 min, 10% native PAGE in 1x TB. To be noted: protein: recombinant; label: 5' FAM.

B1: 35nt ssDNA (ssDNA)
DNA: CGCTCTTCGCCATTCTCTTGAAGTTTCAAACTTGG
On to B1, for which the binding result is “no binding”.
